Experimental data: patent US20250011363A1, “OPTIMIZED SHORTENED PEPTIDE THAT BINDS TO ACETYLCHOLINE RECEPTOR, AND USE THEREOF” (SKINMED CO., LTD., priority 2021, published 2025)

Assays:
[1] = target: acetylcholine receptor; assay: SPR, acetylcholine receptor on CM5 chip, peptide at 10 uM
[2] = target: acetylcholine receptor; assay: SPR, receptor immobilised on chip, peptide at 10 µM

| Binder | Binding affinity (RU) [1] [RU] | Binding affinity [2] [RU] |
| --- | --- | --- |
| RRGLCK [6mer-1-537] | 154 |  |
| RRSYRK [6mer-1-545] | 127 |  |
| RRVILK [6mer-1-535] | 139 |  |
| KKWYLK [6mer-1-555] | 128 |  |
| KRSIRR [6mer-1-565] | 151 |  |
| RRSVCK [6mer-1-543] | 145 |  |
| KKSFCR [6mer-1-566] | 148 |  |
| KRGRLR [6mer-1-551] | 142 |  |
| KRWFRR [6mer-1-542] | 128 |  |
| KRVQTR [6mer-1-540] | 128 |  |
| KRSYQR [6mer-1-562] | 148 |  |
| RRLIQR [6mer-1-558] | 139 |  |
| RKRYRK [6mer-1-552] | 144 |  |
| KRSVTR [6mer-1-554] | 131 |  |
| KRVICR [6mer-1-544] | 149 |  |
| RRRLTK [6mer-1-559] | 139 |  |

| Binder | Binding affinity (RU) [1] [RU] | Binding affinity [2] [RU] |
| --- | --- | --- |
| RKWFTR [6mer-1-541] | 136 |  |
| RRSQCK [6mer-1-538] | 142 |  |
| RRSFSK [6mer-1-560] | 127 |  |
| KKSYQR [6mer-1-549] | 142 |  |
| KRQVQK [6mer-1-557] | 128 |  |
| RRLICR [6mer-1-550] | 148 |  |
| RKLVQR [6mer-1-546] | 123 |  |
| RRSFTR [6mer-1-563] | 139 |  |
| KRGIRK [6mer-1-539] | 148 |  |
| RRVYSR [6mer-1-548] | 123 |  |
| RKVQQR [6mer-1-547] | 148 |  |
| RRWFRK [6mer-1-536] | 151 |  |
| KRSITK [6mer-1-564] | 139 |  |
| RKVYLK [6mer-1-561] | 131 |  |
| KKGFTK [6mer-1-556] | 145 |  |
| RRGVRK [6mer-1-553] | 128 |  |

Continued, values first:

| Binding affinity (RU) [1] [RU] | Binding affinity [2] [RU] | Binder |
| --- | --- | --- |
| 148 |  | KRGFYK [6mer-1-597] |
| 148 |  | KRSVRK [6mer-1-579] |
|  | 139 | RSYSKR [6mer-2-530] |
| 144 |  | RKSRQK [6mer-1-585] |
| 142 |  | RKGVTK [6mer-1-590] |
| 139 |  | RKGQYK [6mer-1-578] |
| 148 |  | KKQLLK [6mer-1-587] |
| 136 |  | KKRVSR [6mer-1-567] |
| 121 |  | KRQLQR [6mer-1-594] |
| 124 |  | KKLYQR [6mer-1-599] |
| 126 |  | KRVLLR [6mer-1-573] |
| 153 |  | RRLVRK [6mer-1-588] |
|  | 148 | KVIYKR [6mer-2-531] |
| 121 |  | KKSLQK [6mer-1-580] |
|  | 151 | KGFRKK [6mer-2-528] |
|  | 124 | RVVLRK [6mer-2-522] |
| 137 |  | KRWFLK [6mer-1-582] |
| 139 |  | KRGLYK [6mer-1-581] |
| 148 |  | RKSYLR [6mer-1-574] |
| 128 |  | KKQYQR [6mer-1-577] |
| 139 |  | KKLQQK [6mer-1-589] |
|  | 144 | RVLLRK [6mer-2-526] |
| 121 |  | KKSLCK [6mer-1-595] |

| Binding affinity (RU) [1] [RU] | Binding affinity [2] [RU] | Binder |
| --- | --- | --- |
| 148 |  | RKVYRK [6mer-1-593] |
| 136 |  | KRVICK [6mer-1-586] |
|  | 124 | KQQRKR [6mer-2-529] |
|  | 147 | KSITKR [6mer-2-532] |
|  | 146 | RGRYKR [6mer-2-523] |
| 127 |  | RKQVSK [6mer-1-584] |
| 148 |  | RRVITK [6mer-1-569] |
|  | 139 | RVQLRR [6mer-2-534] |
| 135 |  | RRWLSK [6mer-1-592] |
|  | 145 | KWVRKK [6mer-2-525] |
| 122 |  | RKRLRK [6mer-1-570] |
|  | 128 | RGIQKR [6mer-2-524] |
| 126 |  | KRVLLK [6mer-1-572] |
|  | 145 | RGQTRR [6mer-2-527] |
| 154 |  | RKLLCK [6mer-1-571] |
|  | 142 | KRLLKR [6mer-2-533] |
| 147 |  | KRWQQK [6mer-1-568] |
| 148 |  | KRWVRR [6mer-1-575] |
| 153 |  | RKRQRR [6mer-1-576] |
| 139 |  | KKVLYK [6mer-1-583] |
| 148 |  | RKGVLR [6mer-1-596] |
| 147 |  | KKRLYR [6mer-1-591] |
| 142 |  | RKWLSK [6mer-1-598] |
